Kd data for two molecules are collected here from US20020127232A1.

For experiment [1], the target named is α2M receptor on peritoneal macrophages of C57BL/6 mice (mouse) (UniProt Q91ZX7). The experiment in a line: saturation binding of 125I-labeled ligand (0.23-60 nM) to mouse peritoneal macrophages at 4 °C for 16 h; one-site fit; concentration based on the mixture of slow and fast forms.
Experiment [2] shares this target. The experiment can be described thus: saturation binding of 125I-labeled ligand (0.23-60 nM) to mouse peritoneal macrophages at 4 °C for 16 h; one-site fit.

In the case of “α2M*-lysozyme complex formed by incubation at 50° C. (5 h), radio-iodinated with Na125I (from UniProt P01023 24-1474; P00698 19-147)”, the Kd in experiment [1] turned out to be 8 nM.

B1: α2-macroglobulin* (NH3-treated, thiol ester-cleaved human α2-macroglobulin) (protein, UniProt P01023 24-1474, looked up)
chain: SVSGKPQYMVLVPSLLHTETTEKGCVLLSYLNETVTVSASLESVRGNRSLFTDLEAENDVLHCVAFAVPKSSSNEEVMFLTVQVKGPTQEFKKRTTVMVKNEDSLVFVQTDKSIYKPGQTVKFRVVSMDENFHPLNELIPLVYIQDPKGNRIAQWQSFQLEGGLKQFSFPLSSEPFQGSYKVVVQKKSGGRTEHPFTVEEFVLPKFEVQVTVPKIITILEEEMNVSVCGLYTYGKPVPGHVTVSICRKYSDASDCHGEDSQAFCEKFSGQLNSHGCFYQQVKTKVFQLKRKEYEMKLHTEAQIQEEGTVVELTGRQSSEITRTITKLSFVKVDSHFRQGIPFFGQVRLVDGKGVPIPNKVIFIRGNEANYYSNATTDEHGLVQFSINTTNVMGTSLTVRVNYKDRSPCYGYQWVSEEHEEAHHTAYLVFSPSKSFVHLEPMSHELPCGHTQTVQAHYILNGGTLLGLKKLSFYYLIMAKGGIVRTGTHGLLVKQEDMKGHFSISIPVKSDIAPVARLLIYAVLPTGDVIGDSAKYDVENCLANKVDLSFSPSQSLPASHAHLRVTAAPQSVCALRAVDQSVLLMKPDAELSASSVYNLLPEKDLTGFPGPLNDQDNEDCINRHNVYINGITYTPVSSTNEKDMYSFLEDMGLKAFTNSKIRKPKMCPQLQQYEMHGPEGLRVGFYESDVMGRGHARLVHVEEPHTETVRKYFPETWIWDLVVVNSAGVAEVGVTVPDTITEWKAGAFCLSEDAGLGISSTASLRAFQPFFVELTMPYSVIRGEAFTLKATVLNYLPKCIRVSVQLEASPAFLAVPVEKEQAPHCICANGRQTVSWAVTPKSLGNVNFTVSAEALESQELCGTEVPSVPEHGRKDTVIKPLLVEPEGLEKETTFNSLLCPSGGEVSEELSLKLPPNVVEESARASVSVLGDILGSAMQNTQNLLQMPYGCGEQNMVLFAPNIYVLDYLNETQQLTPEIKSKAIGYLNTGYQRQLNYKHYDGSYSTFGERYGRNQGNTWLTAFVLKTFAQARAYIFIDEAHITQALIWLSQRQKDNGCFRSSGSLLNNAIKGGVEDEVTLSAYITIALLEIPLTVTHPVVRNALFCLESAWKTAQEGDHGSHVYTKALLAYAFALAGNQDKRKEVLKSLNEEAVKKDNSVHWERPQKPKAPVGHFYEPQAPSAEVEMTSYVLLAYLTAQPAPTSEDLTSATNIVKWITKQQNAQGGFSSTQDTVVALHALSKYGAATFTRTGKAAQVTIQSSGTFSSKFQVDNNNRLLLQQVSLPELPGEYSMKVTGEGCVYLQTSLKYNILPEKEEFPFALGVQTLPQTCDEPKAHTSFQISLSVSYTGSRSASNMAIVDVKMVSGFIPLKPTVKMLERSNHVSRTEVSSNHVLIYLDKVSNQTLSLFFTVLQDVPVRDLKPAIVKVYDYYETDEFAIAEYNAPCSKDLGNA
modifications: thiol ester cleaved by NH3: free Cys949, Gln952 modified with -NH2; bait region intact; radio-iodinated with Na125I in the macrophage binding study
As for B1, the Kd in experiment [2] came to 5 nM.
